Source: paper PMC5514391 (EBioMedicine, 2017)

Target: the molecule itself
Assay: SEC

B1: AdcR H42A/H108A (site 1 metal ligand mutant) (natural protein)
chain: MGTLEKKLDNLVNTILLKAENQHELLFGACQSDVKLTNTQEAILMLLSQQRLTNTDLAKALNISQAAVTKAIKSLVKQDMLAGTKDTVDARVTYFELTELAKPIASEATHHHDETLNVYNRLLQKFSAKELEIVDKFVTVFAEELEG
stoichiometry N: 2

B2: AdcR C30A (site 2 metal ligand mutant) (natural protein)
chain: MGTLEKKLDNLVNTILLKAENQHELLFGAAQSDVKLTNTQEHILMLLSQQRLTNTDLAKALNISQAAVTKAIKSLVKQDMLAGTKDTVDARVTYFELTELAKPIASEHTHHHDETLNVYNRLLQKFSAKELEIVDKFVTVFAEELEG
stoichiometry N: 2
